{
  "source": "paper PMC9080902",
  "about": "(Journal of thrombosis and haemostasis : JTH, 2021)",
  "data": [
    {"target": "flag-tagged paxillin (UniProt P49023 1-591)", "sequence (P49023 whole entry)": "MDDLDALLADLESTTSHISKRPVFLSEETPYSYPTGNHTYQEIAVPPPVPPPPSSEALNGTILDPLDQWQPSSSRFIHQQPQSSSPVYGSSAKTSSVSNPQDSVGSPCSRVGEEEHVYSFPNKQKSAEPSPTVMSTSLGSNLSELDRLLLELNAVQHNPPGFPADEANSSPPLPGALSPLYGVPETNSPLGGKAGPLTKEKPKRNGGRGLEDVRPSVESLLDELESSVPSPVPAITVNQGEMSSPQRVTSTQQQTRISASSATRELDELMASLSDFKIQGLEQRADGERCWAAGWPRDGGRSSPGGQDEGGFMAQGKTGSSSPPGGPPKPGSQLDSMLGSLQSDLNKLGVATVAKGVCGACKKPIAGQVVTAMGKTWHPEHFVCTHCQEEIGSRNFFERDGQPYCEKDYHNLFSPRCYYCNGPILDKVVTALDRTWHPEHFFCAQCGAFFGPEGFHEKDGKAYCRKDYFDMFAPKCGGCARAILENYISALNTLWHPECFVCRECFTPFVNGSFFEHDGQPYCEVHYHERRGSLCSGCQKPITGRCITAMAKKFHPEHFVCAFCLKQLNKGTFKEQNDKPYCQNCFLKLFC", "assay": "BLI", "units": {"Kd": "µM"}, "values": [
      {"binder": "GST-fused PH domain of kindlin-3 (351–476) (domain or fragment, UniProt Q86UX7-2 351-476, looked up) ELKDHLRIFRPRKLTLKGYRQHWVVFKETTLSYYKSQDEAPGDPIQQLNLKGCEVVPDVNVSGQKFCIKLLVPSPEGMSEIYLRCQDEQQYARWMAGCRLASKGRTMADSSYTSEVQAILAFLSLQ", "Kd": 7.6},
      {"binder": "GST-fused PH domain of kindlin-1 (374–496) (domain or fragment, UniProt Q9BQL6 374-496, looked up) DNLKLFRPKKLLPKAFKQYWFIFKDTSIAYFKNKELEQGEPLEKLNLRGCEVVPDVNVAGRKFGIKLLIPVADGMNEMYLRCDHENQYAQWMAACMLASKGKTMADSSYQPEVLNILSFLRMK", "Kd": 14.2},
      {"binder": "GST-fused PH domain of kindlin-2 (374–499) (domain or fragment, UniProt Q96AC1 374-499, looked up) ELADYIKVFKPKKLTLKGYKQYWCTFKDTSISCYKSKEESSGTPAHQMNLRGCEVTPDVNISGQKFNIKLLIPVAEGMNEIWLRCDNEKQYAHWMAACRLASKGKTMADSSYNLEVQNILSFLKMQ", "Kd": 23.5}
    ]}
  ]
}
